Data: US20240391991A1, “MODULATION OF WNT SIGNALLING IN PULMONARY DISORDERS” (Surrozen Operating, Inc., priority 2021, published 2024)
“Also recorded” adds a separate entry of the source.

B1: SWAP1: FZD-1,2,5,7,8-specific Wnt agonist; anti-FZD antibody with LRP6 binder; heavy/light chains SEQ ID NO: 3 and 4 (antibody)
heavy: EVQLVESGGGLVQPGGSLRLSCAASGFTFTSYYISWVRQAPGKGLEWVAEISPYSGSTYYADSVKGRFTISADTSKNTAYLQMNSLRAEDTAVYYCALRARPPIRLHPRGSVMDYWGQGTLVTVSSGGGGSGGGGSGGGGSEVQLVESGGGLVQPGGSLRLSCAASGFTFSHYTLSWVRQAPGKGLEWVSVISGDGSYTYYADSVKGRFTISSDNSKNTLYLQMNSLRAEDTAVYYCARNFIKYVFANWGQGTLVTVSSASTKGPSVFPLAPSSKSTSGGTAALGCLVKDYFPEPVTVSWNSGALTSGVHTFPAVLQSSGLYSLSSVVTVPSSSLGTQTYICNVNHKPSNTKVDKKVEPKSCDKTHTCPPCPAPEAAGGPSVFLFPPKPKDTLMISRTPEVTCVVVDVSHEDPEVKFNWYVDGVEVHNAKTKPREEQYNSTYRVVSVLTVLHQDWLNGKEYKCKVSNKALGAPIEKTISKAKGQPREPQVYTLPPSREEMTKNQVSLTCLVKGFYPSDIAVEWESNGQPENNYKTTPPVLDSDGSFFLYSKLTVDKSRWQQGNVFSCSVMHEALHNHYTQKSLSLSPGK
light: DIQMTQSPSSLSASVGDRVTITCRASQDVSTAVAWYQQKPGKAPKLLIYSASFLYSGVPSRFSGSGSGTDFTLTISSLQPEDFATYYCQQSYTTPPTFGQGTKVEIKGGGGSGGGGSGGGGSDIELTQPPSVSVAPGQTARISCSGDNIGSFYVHWYQQKPGQAPVLVIYDKSNRPSGIPERFSGSNSGNTATLTISGTQAEDEADYYCQSYANTLSLVFGGGTKLTVLGQPKAAPSVTLFPPSSEELQANKATLVCLISDFYPGAVTVAWKADSSPVKAGVETTTPSKQSNNKYAASSYLSLTPEQWKSHRSYSCQVTHEGSTVEKTVAPTECS
B2: SWAP2: FZD1,2,7-specific Wnt agonist; anti-FZD antibody with LRP6 binder; heavy/light chains SEQ ID NO: 5 and 6 (antibody)
heavy: EVQLVESGGGLVQPGGSLRLSCAASGFTFTSYYISWVRQAPGKGLEWVAEISPYSGSTYYADSVKGRFTISADTSKNTAYLQMNSLRAEDTAVYYCALRARPPIRLHPRGSVMDYWGQGTLVTVSSGGGGSGGGGSGGGGSEVQLVESGGGLVQPGGSLRLSCAASGFNISSSYIHWVRQAPGKGLEWVAYIYSSYGSTYYADSVKGRFTISADTSKNTAYLQMNSLRAEDTAVYYCARASWYALDYWGQGTLVTVSSASTKGPSVFPLAPSSKSTSGGTAALGCLVKDYFPEPVTVSWNSGALTSGVHTFPAVLQSSGLYSLSSVVTVPSSSLGTQTYICNVNHKPSNTKVDKKVEPKSCDKTHTCPPCPAPEAAGGPSVFLFPPKPKDTLMISRTPEVTCVVVDVSHEDPEVKFNWYVDGVEVHNAKTKPREEQYNSTYRVVSVLTVLHQDWLNGKEYKCKVSNKALGAPIEKTISKAKGQPREPQVYTLPPSREEMTKNQVSLTCLVKGFYPSDIAVEWESNGQPENNYKTTPPVLDSDGSFFLYSKLTVDKSRWQQGNVFSCSVMHEALHNHYTQKSLSLSPGK
light: DIQMTQSPSSLSASVGDRVTITCRASQDVSTAVAWYQQKPGKAPKLLIYSASFLYSGVPSRFSGSGSGTDFTLTISSLQPEDFATYYCQQSYTTPPTFGQGTKVEIKGGGGSGGGGSGGGGSDIQMTQSPSSLSASVGDRVTITCRASQSVSSAVAWYQQKPGKAPKLLIYSASSLYSGVPSRFSGSRSGTDFTLTISSLQPEDFATYYCQQYWYGVAPITFGQGTKVEIKRTVAAPSVFIFPPSDEQLKSGTASVVCLLNNFYPREAKVQWKVDNALQSGNSQESVTEQDSKDSTYSLSSTLTLSKADYEKHKVYACEVTHQGLSSPVTKSFNRGEC
B3: SWAP3: FZD5,8-specific Wnt agonist (FZD5,8 and LRP6); heavy/light chains SEQ ID NO: 7 and 8 (antibody)
heavy: EVQLVESGGGLVQPGGSLRLSCAASGFTFTSYYISWVRQAPGKGLEWVAEISPYSGSTYYADSVKGRFTISADTSKNTAYLQMNSLRAEDTAVYYCALRARPPIRLHPRGSVMDYWGQGTLVTVSSGGGGSGGGGSGGGGSEVQLVESGGGLVQPGGSLRLSCAASGFNISYSYIHWVRQAPGKGLEWVASIYSSSGSTSYADSVKGRFTISADTSKNTAYLQMNSLRAEDTAVYYCARGAIDYWGQGTLVTVSSASTKGPSVFPLAPSSKSTSGGTAALGCLVKDYFPEPVTVSWNSGALTSGVHTFPAVLQSSGLYSLSSVVTVPSSSLGTQTYICNVNHKPSNTKVDKKVEPKSCDKTHTCPPCPAPEAAGGPSVFLFPPKPKDTLMISRTPEVTCVVVDVSHEDPEVKFNWYVDGVEVHNAKTKPREEQYNSTYRVVSVLTVLHQDWLNGKEYKCKVSNKALGAPIEKTISKAKGQPREPQVYTLPPSREEMTKNQVSLTCLVKGFYPSDIAVEWESNGQPENNYKTTPPVLDSDGSFFLYSKLTVDKSRWQQGNVFSCSVMHEALHNHYTQKSLSLSPGK
light: DIQMTQSPSSLSASVGDRVTITCRASQDVSTAVAWYQQKPGKAPKLLIYSASFLYSGVPSRFSGSGSGTDFTLTISSLQPEDFATYYCQQSYTTPPTFGQGTKVEIKGGGGSGGGGSGGGGSDIQMTQSPSSLSASVGDRVTITCRASQSVSSAVAWYQQKPGKAPKLLIYSASSLYSGVPSRFSGSRSGTDFTLTISSLQPEDFATYYCQQWYSSGHVLITFGQGTKVEIKRTVAAPSVFIFPPSDEQLKSGTASVVCLLNNFYPREAKVQWKVDNALQSGNSQESVTEQDSKDSTYSLSSTLTLSKADYEKHKVYACEVTHQGLSSPVTKSFNRGEC

Tests used:
human AT2 cell organoid [1] = assay: Human AT2 cell organoid growth, CellTiter Glo assay; assay type: cell-based; conditions: for self-renewal and expansion of human AT2 cells: summary of organoid results; for effectiveness on human AT2 organoid expansion versus Chir99021: 10 nM concentration; for effectiveness on human AT2 organoid expansion versus Chir99021 / human AT2 organoid culture outgrowth/viability (CellTiter Glo): in the absence of RSPO, FIG. 8; for human AT2 organoid culture outgrowth/viability (CellTiter Glo): SWAP alone
Description: For ex vivo studies, 3D organoid cultures (see, e.g., Zacharias, W. et al. (2018) Nature 555:251-257 and Barkauskas et al. (2017) Development 144:986-997) were constructed by combining primary human lung fibroblasts from healthy, pulmonary fibrosis, or COPD patients with alveolar epithelial cells (AT2 and AEP cells) from patients. Organoids were cultured in SAGM medium with growth factor free Matrigel. The Wnt antagonist and agonist were added in a sequential or concurrent manner to determine the effect on the fibroblast/myofibroblast proliferation, matrix production, alveolar epithelial cell proliferation and AT1/AT2 cell fate trans-differentiation. Alveolar organoids can also be cultured directly from human distal lung cells including purified AT2 cells (Kobayashi et al., (2020) supra).
(§1) In all of the AT2 cell organoid experiments, the Wnt signaling inhibitor, C59, was used to prevent endogenous secretion of Wnt ligands. […] AT2 cell organoid growth was assessed with the CellTiter Glo assay.

[2] = test system: mouse AT2 organoid cultures; assay: Mouse AT2 cell organoid expansion, CellTiter-Glo assay; assay type: cell-based; conditions: SWAP in combination with RSPO2; C59 present; FIG. 9
Description: as §1

human AT2 cell organoid [3] = assay: Human AT2 organoid size (diameter, microscopy); assay type: cell-based; conditions: in the absence of RSPO; for human AT2 cell organoid growth as organoid size (diameter): C59 present, FIG. 6; for numbers of organoids and organoid size by microscopy: FIG. 8
[4] = test system: acute bleomycin mouse model; assay: Bleomycin-induced acute lung injury (fibrosis) mouse model; assay type: in vivo; conditions: agent alone
Description: The acute lung injury (single bleomycin treatment; FIG. 1) and chronic intermittent/low dose bleomycin mouse models (FIG. 2) were used to determine the therapeutic effects of Wnt antagonist and agonist (administered concurrently or sequentially or individually) in combination with or without anti-fibrotic drugs (e.g., pirfenidone and nintedanib) to assess effects on anti-fibrotic and improved respiratory functions (see, e.g., Degryse, A. et al. (2010) Am J Physiol Lung Cell Mol Physiol. 299:442-52). Improvement of fibrosis was observed upon treatment with a WNT agonist, SWAP5 (see, e.g., FIG. 7, FIG. 10). Specifically, bleomycin was administered intratracheally to the mice at day 0, and animals were treated twice weekly with an agonist approach—combination of SWAP5 (FZD1,2,5,7,8 multi-FZD-specific SWAP) and RSPO2 (combo)—for two weeks starting at day 7 until termination at day 21. […] Improvement of fibrosis was also observed upon treatment with a Wnt agonist or the Wnt signaling enhancer RSPO2 alone (FIG. 10).

Molecule	human AT2 cell organoid growth (CellTiter Glo), compared with Chir99021 (human AT2 cell organoid [1]; SWAP in combination with RSPO1, C59 present, FIGS. 5A and 5B)	self-renewal and expansion of human AT2 cells (human AT2 cell organoid [1])	expansion of mouse AT2 organoid cultures (CellTiter-Glo) [2]	human AT2 cell organoid growth as organoid size (diameter) (human AT2 cell organoid [3])	numbers of organoids and organoid size by microscopy (human AT2 cell organoid [3])	effectiveness on human AT2 organoid expansion versus Chir99021 (human AT2 cell organoid [1])	human AT2 organoid culture outgrowth/viability (CellTiter Glo) (human AT2 cell organoid [1]; C59 present)	percentage of lung area affected by fibrosis ([4]; dosed four times between week 1 and week 3, vs anti-GFP, FIGS. 10-11)	fibrosis score (Modified Ashcroft) ([4]; dosed four times between week 1 and week 3, vs anti-GFP, FIGS. 10-12)	percent of ACTA2 in the lung ([4]; FIG. 11D)	immune cell infiltration / inflammation (H&E based pathology scores) ([4]; FIG. 11E)	IL6 in lung tissue (Meso Scale Discovery) ([4]; FIG. 11F)	IL1B in lung tissue (Meso Scale Discovery) ([4]; FIG. 11G)	GRO/CXCL1 in lung tissue (Meso Scale Discovery) ([4]; FIG. 11H)	cytokine levels ([4]; lung tissue, FIG. 11)
B1	enhancement of human AT2 cell organoid growth that surpassed the growth observed upon treatment with the small molecule Wnt signaling activator, Chir99021; also recorded: more effective than the small molecule, CHIR99021	promotes the self-renewal and expansion of human AT2 cells	led to the expansion of mouse AT2 organoid cultures	–	–	–	–	–	–	–	–	–	–	–	–
B2	–	promotes the self-renewal and expansion of human AT2 cells	led to the expansion of mouse AT2 organoid cultures	expand AT2 organoids	increased numbers of organoids and organoid size	more effective than the small molecule Wnt pathway activator, Chir99021	induced human AT2 organoid culture outgrowth/viability as assessed by the CellTiter Glo assay in a concentration-dependent manner; also recorded: induce human AT2 cell organoid expansion alone (in the absence of RSPO) in a dose-dependent manner	–	–	–	–	–	–	–	–
B3	–	promotes the self-renewal and expansion of human AT2 cells	led to the expansion of mouse AT2 organoid cultures	expand AT2 organoids	increased numbers of organoids and organoid size	more effective than the small molecule Wnt pathway activator, Chir99021	induced human AT2 organoid culture outgrowth/viability as assessed by the CellTiter Glo assay in a concentration-dependent manner; also recorded: induce human AT2 cell organoid expansion alone (in the absence of RSPO) in a dose-dependent manner	reduced the fibrosis score, the percentage of lung affected, immune cell infiltration, and cytokine levels in the acute bleomycin mouse model in a dose-dependent manner; also recorded: reduce the area of the lung that is fibrotic	reduced the fibrosis score, the percentage of lung affected, immune cell infiltration, and cytokine levels in the acute bleomycin mouse model in a dose-dependent manner; also recorded: lower the severity of fibrosis	reduction of fibrosis	reduced the fibrosis score, the percentage of lung affected, immune cell infiltration, and cytokine levels in the acute bleomycin mouse model in a dose-dependent manner; also recorded: reduction in inflammation	reduction in cytokines	reduction in cytokines	reduction in cytokines	reduced the fibrosis score, the percentage of lung affected, immune cell infiltration, and cytokine levels in the acute bleomycin mouse model in a dose-dependent manner
